Data taken from patent US20210060185.

What was measured:
[1] = biological target: T1, C-His Ana GvpC with TEV cleavage site (engineered Anabaena flos-aquae GvpC, TEV-sensitive)
T1 chain: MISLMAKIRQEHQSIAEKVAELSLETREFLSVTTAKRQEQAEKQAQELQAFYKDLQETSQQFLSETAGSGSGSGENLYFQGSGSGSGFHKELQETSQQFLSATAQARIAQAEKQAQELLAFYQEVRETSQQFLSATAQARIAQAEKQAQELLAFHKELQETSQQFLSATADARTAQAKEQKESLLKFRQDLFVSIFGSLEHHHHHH

WT C-His Ana GvpC = biological target: T2, WT C-His Ana GvpC
T2 chain: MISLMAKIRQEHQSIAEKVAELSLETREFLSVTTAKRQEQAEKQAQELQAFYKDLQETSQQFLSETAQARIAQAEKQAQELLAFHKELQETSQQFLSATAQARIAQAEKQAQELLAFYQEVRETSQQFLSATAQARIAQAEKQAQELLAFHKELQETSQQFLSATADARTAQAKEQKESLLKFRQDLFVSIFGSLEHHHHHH

[2] = biological target: T3, C-His Ana GvpC with calpain cleavage site (engineered Anabaena flos-aquae GvpC, calpain-sensitive)
T3 chain: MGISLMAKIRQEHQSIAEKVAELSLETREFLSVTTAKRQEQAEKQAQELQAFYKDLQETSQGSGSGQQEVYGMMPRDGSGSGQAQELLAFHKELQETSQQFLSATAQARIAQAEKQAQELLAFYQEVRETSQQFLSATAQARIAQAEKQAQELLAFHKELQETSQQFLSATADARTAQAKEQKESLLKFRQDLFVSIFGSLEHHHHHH

Protein | cleavage on Coomassie-stained SDS-PAGE [1] | hydrostatic collapse pressure midpoint (pressurized absorbance spectroscopy) [1] | nonlinear (x-AM) ultrasound contrast-to-noise ratio enhancement [1] | hydrostatic collapse pressure, nonlinear acoustic contrast and cleavage on SDS-PAGE (WT C-His Ana GvpC) | cleavage on Coomassie-stained SDS-PAGE [2] | collapse pressure after exposure to calpain and calcium (FIG. 8B) [2] | hydrostatic collapse pressure (pressurized absorbance spectroscopy) [2] | nonlinear (x-AM) ultrasound contrast [2] | nonlinear contrast to noise ratio with calpain and calcium (FIG. 8G) [2] | cleavage on SDS-PAGE, GV collapse pressure and ultrasound response (WT C-His Ana GvpC)
recombinant TEV protease (Tobacco etch virus protease) (protein) GESLFKGPRDYNPISSTICHLTNESDGHTTSLYGIGFGPFIITNKHLFRRNNGTLLVQSLHGVFKVKNTTTLQQHLIDGRDMIIIRMPKDFPPFPQKLKFREPQREERICLVTTNFQTKSMSSMVSDTSCTFPSSDGIFWKHWIQTKDGQCGSPLVSTRDGFIVGIHSASNFTNTNNYFTSVPKNFMELLTNQEAQQWVSGWRLNADSVLWGGHKVFMSKPEEPFQPVKEATQLMNELVYSQ | gel electrophoresis of GVSTEV after exposure to active TEV resulted in the appearance of the two cleaved GvpC fragments and a significant reduction in the intact GvpC band | ˜70 kPa reduction in its collapse pressure midpoint upon incubation with the active TEV protease | a maximal contrast-to-noise ratio (CNR) enhancement of ˜7 dB at an applied acoustic pressure of 438 kPa | showed no difference in their hydrostatic collapse pressure or nonlinear acoustic contrast in response to TEV protease (FIGS. 7I-7K), and no wild-type GvpC cleavage was seen upon gel electrophoresis |  |  |  |  |  | 
calpain-1 from porcine erythrocytes (protein) chain 1: MAEEVITPVYCTGVSAQVQKLRAKELGLGRHENAIKYLGQDYEQLRAHCLQSGSLFRDEAFPPVPQSLGFKELGPNSSKTYGVKWKRPTELFSNPQFIVDGATRTDICQGALGDCWLLAAIASLTLNDTLLHRVVPHGQSFQNGYAGIFHFQLWQFGEWVDVVVDDLLPTKDGKLVFVHSAQGNEFWSALLEKAYAKVNGSYEALSGGSTSEGFEDFTGGVTEWYELRKAPSDLYSIILKALERGSLLGCSIDISSVLDMEAVTFKKLVKGHAYSVTGAKQVNYQGQMVNLIRMRNPWGEVEWTGAWSDGSSEWNGVDPYQRDQLRVRMEDGEFWMSFRDFLREFTRLEICNLTPDALKSQRVRNWNTTLYEGTWRRGSTAGGCRNYPATFWVNPQFKIRLEETDDPEDDYGGRESGCSFVLALMQKHRRRERRFGRDMETIGFAVYEVPPELVGQPVHLKRDFFLANASRARSEQFINLREVSTRFRLPPGEYVVVPSTFEPNKEGDFVLRFFSEKKAGTQELDDQVQAILPDEQVLSEEEIDENFKALFRQLAGEDMEISVRELRTILNRIISKHKDLRTKGFSLESCRSMVNLMDRDGNGKLGLVEFNILWNRIRNYLSIFRKFDLDKSGSMSAYEMRMAIESAGFKLNKKLFELIITRYSEPDLAVDFDNFVCCLVRLETMFRFFKTLDTDLDGVVTFDLFKWLQLTMFA chain 2: MFLVNSFLKGGGGGGGGGGGLGGGLGNVLGGLISGAGGGGGGGGGGGGGGGGGGTAMRILGGVISAISEAAAQYNPEPPPPRTHYSNIEANESEEVRQFRRLFAQLAGDDMEVSATELMNILNKVVTRHPDLKTDGFGIDTCRSMVAVMDSDTTGKLGFEEFKYLWNNIKKWQAIYKQFDVDRSGTIGSSELPGAFEAAGFHLNEHLYSMIIRRYSDEGGNMDFDNFISCLVRLDAMFRAFKSLDKDGTGQIQVNIQEWLQLTMYS |  |  |  |  | Electrophoretic analysis confirmed cleavage and partial dissociation of the cleaved fragments from the GV surface | ˜290 kPa compared to 336-344 kPa | an approximately 50 kPa decrease in hydrostatic collapse pressure in the presence of the enzyme and its ionic activator | the maximal nonlinear sensor contrast of GVScalp of approximately 7 dB | (+Calp/+Ca^2+) shows a stronger nonlinear ratio (CNR=10.3) | showed no proteolytic cleavage, change in GV collapse pressure or ultrasound response, after incubation with calcium-activated calpain
